Data taken from PMC9352680, “A comprehensive thermodynamic model for RNA binding by the Saccharomyces cerevisiae Pumilio protein PUF4”.

T1: PUF4 RNA-binding domain (Saccharomyces cerevisiae, UniProt P25339 537-888)
T1 sequence: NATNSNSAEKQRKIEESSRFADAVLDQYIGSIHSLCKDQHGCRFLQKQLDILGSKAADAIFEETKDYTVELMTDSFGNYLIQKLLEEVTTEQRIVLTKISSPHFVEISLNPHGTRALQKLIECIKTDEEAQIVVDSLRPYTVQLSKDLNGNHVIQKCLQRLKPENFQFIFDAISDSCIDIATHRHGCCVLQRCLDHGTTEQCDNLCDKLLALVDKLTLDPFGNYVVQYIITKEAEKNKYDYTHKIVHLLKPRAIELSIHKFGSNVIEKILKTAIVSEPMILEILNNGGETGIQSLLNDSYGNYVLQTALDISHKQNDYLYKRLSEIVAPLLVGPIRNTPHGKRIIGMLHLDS


Biological target: T1, PUF4 RNA-binding domain
Assay: Mg; RNA-MaP; 20 mM Na-HEPES pH 7.4, 30 mM KOAc, 0.75 mM MgCl2, 0.1% Tween-20, 5% glycerol, 0.1 mg/mL BSA, 2 mM DTT; 25 C; 0.0125-409.6 nM protein
Details: tags: N-His6-TEV cleaved; C-SNAP kept, Cy3B-labelled; label: tethered on chip by stalled RNA polymerase

| Binder | Kd [nM] |
| --- | --- |
| UCUCUUUGUACACGAUCUCUU (ssRNA) [Ic_S1_P4E.1_K4.1_C4.1_H4.1_A4.1_[T5C]_[T7C]_F4.1_[T8G]_T4.1] | 60.9 |
| UCUCUUUGUACACAAUCUCUU (ssRNA) [Ic_S1_P4E.1_K4.1_C4.1_H4.1_A4.1_[T5C]_[T7C]_F4.1_[T8A]_T4.1] | 17.1 |
| UCUCUUUGUACACGCUCUCUU (ssRNA) [Ic_S1_P4E.1_K4.1_C4.1_H4.1_A4.1_[T5C]_[T7C]_F4.1_[T8G]_[A9C]_T4.1] | 145 |
| UCUCUUUGUACUCCGUCUCUU (ssRNA) [Ic_S1_P4E.1_K4.1_C4.1_H4.1_A4.1_[T5C]_[A6T]_[T7C]_F4.1_[T8C]_[A9G]_T4.1] | 969 |
| UCUCUUUGUAUGUAUCUCUU (ssRNA) [Ic_S1_P3E.1_K3.1_C3.1_H3.1_A3.1_[A6G]_F3.1_T3.1] | 66.5 |
| UCUCUUUGUACUCAGUCUCUU (ssRNA) [Ic_S1_P4E.1_K4.1_C4.1_H4.1_A4.1_[T5C]_[A6T]_[T7C]_F4.1_[T8A]_[A9G]_T4.1] | 738 |
| UCUCUUUGUACUGUAUCUCUU (ssRNA) [Ic_S1_P4E.1_K4.1_C4.1_H4.1_A4.1_[T5C]_[A6T]_[T7G]_F4.1_T4.1] | 5.91 |
| UCUCUUUGUACUACAUCUCUU (ssRNA) [Ic_S1_P4E.1_K4.1_C4.1_H4.1_A4.1_[T5C]_[A6T]_[T7A]_F4.1_[T8C]_T4.1] | 140 |
| UCUCUUUGUACUUCUUCUCUU (ssRNA) [Ic_S1_P4E.1_K4.1_C4.1_H4.1_A4.1_[T5C]_[A6T]_F4.1_[T8C]_[A9T]_T4.1] | 75.2 |
| UCUCUUUGUACUCAUUCUCUU (ssRNA) [Ic_S1_P4E.1_K4.1_C4.1_H4.1_A4.1_[T5C]_[A6T]_[T7C]_F4.1_[T8A]_[A9T]_T4.1] | 150 |
| UCUCUUUGUACAGCUUCUCUU (ssRNA) [Ic_S1_P4E.1_K4.1_C4.1_H4.1_A4.1_[T5C]_[T7G]_F4.1_[T8C]_[A9T]_T4.1] | 78.3 |
| UCUCUUUGUACACCCUCUCUU (ssRNA) [Ic_S1_P4E.1_K4.1_C4.1_H4.1_A4.1_[T5C]_[T7C]_F4.1_[T8C]_[A9C]_T4.1] | 118 |
| UCUCUUAGUAUAUGUCUCUU (ssRNA) [Ib_S1_P3E.1_K3.1_C3.1_H3.1_[T1A]_A3.1_F3.1_[A8G]_T3.1] | > 2300 |
| UCUCUUUGUACAGCAUCUCUU (ssRNA) [Ic_S1_P4E.1_K4.1_C4.1_H4.1_A4.1_[T5C]_[T7G]_F4.1_[T8C]_T4.1] | 38.5 |
| UCUCUUUGUACAACGUCUCUU (ssRNA) [Ic_S1_P4E.1_K4.1_C4.1_H4.1_A4.1_[T5C]_[T7A]_F4.1_[T8C]_[A9G]_T4.1] | 92.3 |
| UCUCUUUGUACUUAUUCUCUU (ssRNA) [Ic_S1_P4E.1_K4.1_C4.1_H4.1_A4.1_[T5C]_[A6T]_F4.1_[T8A]_[A9T]_T4.1] | 34.1 |
| UCUCUUUGUACUGCAUCUCUU (ssRNA) [Ic_S1_P4E.1_K4.1_C4.1_H4.1_A4.1_[T5C]_[A6T]_[T7G]_F4.1_[T8C]_T4.1] | 668 |
| UCUCUUUGUACUAGCUCUCUU (ssRNA) [Ic_S1_P4E.1_K4.1_C4.1_H4.1_A4.1_[T5C]_[A6T]_[T7A]_F4.1_[T8G]_[A9C]_T4.1] | 643 |
| UCUCUUUGUACUAUUUCUCUU (ssRNA) [Ic_S1_P4E.1_K4.1_C4.1_H4.1_A4.1_[T5C]_[A6T]_[T7A]_F4.1_[A9T]_T4.1] | 9.22 |
| UCUCUUUGUACUUGUUCUCUU (ssRNA) [Ic_S1_P4E.1_K4.1_C4.1_H4.1_A4.1_[T5C]_[A6T]_F4.1_[T8G]_[A9T]_T4.1] | 51.9 |

| Binder | Kd [nM] |
| --- | --- |
| UCUCUUUGUACUUGGUCUCUU (ssRNA) [Ic_S1_P4E.1_K4.1_C4.1_H4.1_A4.1_[T5C]_[A6T]_F4.1_[T8G]_[A9G]_T4.1] | 623 |
| UCUCUUUGUACACCGUCUCUU (ssRNA) [Ic_S1_P4E.1_K4.1_C4.1_H4.1_A4.1_[T5C]_[T7C]_F4.1_[T8C]_[A9G]_T4.1] | 407 |
| UCUCUUUAUAUAUGUCUCUU (ssRNA) [Ib_S1_P3E.1_K3.1_C3.1_H3.1_[G2A]_A3.1_F3.1_[A8G]_T3.1] | > 2300 |
| UCUCUUCGUAUAUUUCUCUU (ssRNA) [Ib_S1_P3E.1_K3.1_C3.1_H3.1_[T1C]_A3.1_F3.1_[A8T]_T3.1] | 830 |
| UCUCUUUGUACUGUGUCUCUU (ssRNA) [Ic_S1_P4E.1_K4.1_C4.1_H4.1_A4.1_[T5C]_[A6T]_[T7G]_F4.1_[A9G]_T4.1] | 50.5 |
| UCUCUUUGUACACUGUCUCUU (ssRNA) [Ic_S1_P4E.1_K4.1_C4.1_H4.1_A4.1_[T5C]_[T7C]_F4.1_[A9G]_T4.1] | 5.05 |
| UCUCUUUGUACUCUAUCUCUU (ssRNA) [Ic_S1_P4E.1_K4.1_C4.1_H4.1_A4.1_[T5C]_[A6T]_[T7C]_F4.1_T4.1] | 3.48 |
| UCUCUUUGUACAAGCUCUCUU (ssRNA) [Ic_S1_P4E.1_K4.1_C4.1_H4.1_A4.1_[T5C]_[T7A]_F4.1_[T8G]_[A9C]_T4.1] | 692 |
| UCUCUUUGUACUAUCUCUCUU (ssRNA) [Ic_S1_P4E.1_K4.1_C4.1_H4.1_A4.1_[T5C]_[A6T]_[T7A]_F4.1_[A9C]_T4.1] | 13.8 |
| UCUCUUUGUACUCACUCUCUU (ssRNA) [Ic_S1_P4E.1_K4.1_C4.1_H4.1_A4.1_[T5C]_[A6T]_[T7C]_F4.1_[T8A]_[A9C]_T4.1] | 1060 |
| UCUCUUUGUACUCUUUCUCUU (ssRNA) [Ic_S1_P4E.1_K4.1_C4.1_H4.1_A4.1_[T5C]_[A6T]_[T7C]_F4.1_[A9T]_T4.1] | 33.7 |
| UCUCUUUGUACUUCGUCUCUU (ssRNA) [Ic_S1_P4E.1_K4.1_C4.1_H4.1_A4.1_[T5C]_[A6T]_F4.1_[T8C]_[A9G]_T4.1] | 424 |
| UCUCUUUGUACUCCCUCUCUU (ssRNA) [Ic_S1_P4E.1_K4.1_C4.1_H4.1_A4.1_[T5C]_[A6T]_[T7C]_F4.1_[T8C]_[A9C]_T4.1] | 508 |
| UCUCUUUGUACUAACUCUCUU (ssRNA) [Ic_S1_P4E.1_K4.1_C4.1_H4.1_A4.1_[T5C]_[A6T]_[T7A]_F4.1_[T8A]_[A9C]_T4.1] | 330 |
| UCUCUUUGUACUGCGUCUCUU (ssRNA) [Ic_S1_P4E.1_K4.1_C4.1_H4.1_A4.1_[T5C]_[A6T]_[T7G]_F4.1_[T8C]_[A9G]_T4.1] | 1280 |
| UCUCUUUGUACAGCGUCUCUU (ssRNA) [Ic_S1_P4E.1_K4.1_C4.1_H4.1_A4.1_[T5C]_[T7G]_F4.1_[T8C]_[A9G]_T4.1] | 112 |
| UCUCUUUGUACUCCUUCUCUU (ssRNA) [Ic_S1_P4E.1_K4.1_C4.1_H4.1_A4.1_[T5C]_[A6T]_[T7C]_F4.1_[T8C]_[A9T]_T4.1] | 407 |
| UCUCUUUGUACUUUUUCUCUU (ssRNA) [Ic_S1_P4E.1_K4.1_C4.1_H4.1_A4.1_[T5C]_[A6T]_F4.1_[A9T]_T4.1] | 19.2 |
| UCUCUUUGUACACUCUCUCUU (ssRNA) [Ic_S1_P4E.1_K4.1_C4.1_H4.1_A4.1_[T5C]_[T7C]_F4.1_[A9C]_T4.1] | 8.95 |
| UCUCUUUGUACAACCUCUCUU (ssRNA) [Ic_S1_P4E.1_K4.1_C4.1_H4.1_A4.1_[T5C]_[T7A]_F4.1_[T8C]_[A9C]_T4.1] | 81 |

| Binder | Kd [nM] |
| --- | --- |
| UCUCUUUGUACAGUGUCUCUU (ssRNA) [Ic_S1_P4E.1_K4.1_C4.1_H4.1_A4.1_[T5C]_[T7G]_F4.1_[A9G]_T4.1] | 16.5 |
| UCUCUUUGUACUAUAUCUCUU (ssRNA) [Ic_S1_P4E.1_K4.1_C4.1_H4.1_A4.1_[T5C]_[A6T]_[T7A]_F4.1_T4.1] | 1.28 |
| UCUCUUGGUAUAUUUCUCUU (ssRNA) [Ib_S1_P3E.1_K3.1_C3.1_H3.1_[T1G]_A3.1_F3.1_[A8T]_T3.1] | 1250 |
| UCUCUUAGUAUAUUUCUCUU (ssRNA) [Ib_S1_P3E.1_K3.1_C3.1_H3.1_[T1A]_A3.1_F3.1_[A8T]_T3.1] | 1220 |
| UCUCUUUGUACUUGCUCUCUU (ssRNA) [Ic_S1_P4E.1_K4.1_C4.1_H4.1_A4.1_[T5C]_[A6T]_F4.1_[T8G]_[A9C]_T4.1] | 414 |
| UCUCUUUGUACACGGUCUCUU (ssRNA) [Ic_S1_P4E.1_K4.1_C4.1_H4.1_A4.1_[T5C]_[T7C]_F4.1_[T8G]_[A9G]_T4.1] | 468 |
| UCUCUUUGUACAGUUUCUCUU (ssRNA) [Ic_S1_P4E.1_K4.1_C4.1_H4.1_A4.1_[T5C]_[T7G]_F4.1_[A9T]_T4.1] | 13.3 |
| UCUCUUUUUAUAUCUCUCUU (ssRNA) [Ib_S1_P3E.1_K3.1_C3.1_H3.1_[G2T]_A3.1_F3.1_[A8C]_T3.1] | > 2300 |
| UCUCUUUGUACUGCCUCUCUU (ssRNA) [Ic_S1_P4E.1_K4.1_C4.1_H4.1_A4.1_[T5C]_[A6T]_[T7G]_F4.1_[T8C]_[A9C]_T4.1] | 684 |
| UCUCUUUGUACUUAGUCUCUU (ssRNA) [Ic_S1_P4E.1_K4.1_C4.1_H4.1_A4.1_[T5C]_[A6T]_F4.1_[T8A]_[A9G]_T4.1] | 43 |
| UCUCUUUGUACACAUUCUCUU (ssRNA) [Ic_S1_P4E.1_K4.1_C4.1_H4.1_A4.1_[T5C]_[T7C]_F4.1_[T8A]_[A9T]_T4.1] | 22.6 |
| UCUCUUUGUACUUUCUCUCUU (ssRNA) [Ic_S1_P4E.1_K4.1_C4.1_H4.1_A4.1_[T5C]_[A6T]_F4.1_[A9C]_T4.1] | 39.6 |
| UCUCUUUGUACUUGAUCUCUU (ssRNA) [Ic_S1_P4E.1_K4.1_C4.1_H4.1_A4.1_[T5C]_[A6T]_F4.1_[T8G]_T4.1] | 465 |
| UCUCUUUGUACUCGCUCUCUU (ssRNA) [Ic_S1_P4E.1_K4.1_C4.1_H4.1_A4.1_[T5C]_[A6T]_[T7C]_F4.1_[T8G]_[A9C]_T4.1] | 972 |
| UCUCUUUGUACUCUGUCUCUU (ssRNA) [Ic_S1_P4E.1_K4.1_C4.1_H4.1_A4.1_[T5C]_[A6T]_[T7C]_F4.1_[A9G]_T4.1] | 30.5 |
| UCUCUUUGUACUACCUCUCUU (ssRNA) [Ic_S1_P4E.1_K4.1_C4.1_H4.1_A4.1_[T5C]_[A6T]_[T7A]_F4.1_[T8C]_[A9C]_T4.1] | 478 |
| UCUCUUUGUACACUUUCUCUU (ssRNA) [Ic_S1_P4E.1_K4.1_C4.1_H4.1_A4.1_[T5C]_[T7C]_F4.1_[A9T]_T4.1] | 7.32 |
| UCUCUUUGUACAGUCUCUCUU (ssRNA) [Ic_S1_P4E.1_K4.1_C4.1_H4.1_A4.1_[T5C]_[T7G]_F4.1_[A9C]_T4.1] | 17 |
| UCUCUUUGUACUAAAUCUCUU (ssRNA) [Ic_S1_P4E.1_K4.1_C4.1_H4.1_A4.1_[T5C]_[A6T]_[T7A]_F4.1_[T8A]_T4.1] | 69.7 |
